Positions count from the first letter of the chain named. Names and notes keep the numbering of the source. Each block holds one binder with its values, some of them ahead of it.
Legend:
[1] = target: T1, human thrombin (human, UniProt P00734 328-622); experiment: thrombin inhibition rate in the absence of heparin
[2] = target: T2, human neutrophil cathepsin G (human, UniProt P08311 21-244); experiment: cell-based or functional assay
T2 sequence (looked up): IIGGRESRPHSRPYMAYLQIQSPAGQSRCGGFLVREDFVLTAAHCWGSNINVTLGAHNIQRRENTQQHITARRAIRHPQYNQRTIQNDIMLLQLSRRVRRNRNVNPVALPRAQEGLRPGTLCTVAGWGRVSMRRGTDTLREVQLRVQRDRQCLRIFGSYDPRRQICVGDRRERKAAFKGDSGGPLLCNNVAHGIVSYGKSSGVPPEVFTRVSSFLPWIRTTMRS

[3] = target: T1, human thrombin; experiment: cell-based or functional assay
[4] = target: human factor Xa (human, UniProt P00742 41-179; P00742 235-488, limits assumed); experiment: cell-based or functional assay
[5] = target: T3, human neutrophil elastase (human, UniProt P08246 30-247, limits assumed); experiment: cell-based or functional assay
T3 sequence (looked up): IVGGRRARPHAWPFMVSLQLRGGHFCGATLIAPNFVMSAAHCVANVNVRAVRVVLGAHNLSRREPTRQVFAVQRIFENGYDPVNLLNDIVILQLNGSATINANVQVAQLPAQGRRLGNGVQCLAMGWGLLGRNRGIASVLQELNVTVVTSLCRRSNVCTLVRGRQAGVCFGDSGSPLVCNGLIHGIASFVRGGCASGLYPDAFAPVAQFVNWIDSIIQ

[6] = target: T1, human thrombin; experiment: thrombin inhibition rate in the presence of heparin (HAH)
[7] = target: T4, factor Xa (human, UniProt P00742 41-179; P00742 235-488, limits assumed); experiment: heparin cofactor assay, HCA expt #2; ATIII titrated on 10 nM fXa + 50 ug/ml UFH, chromogenic readout
T4 construct: Active factor Xa has a light and a heavy chain; also called fXa
Experimental: (§1) After 3 minutes, the reactions were quenched with polybrene and chromogenic substrate S2238 (thrombin) or S2765 (fXa), and the initial rate of chromophore production (405 nm) recorded to obtain a measurement residual, uninhibited thrombin or factor Xa. IC50s were determined from plots of ATIII concentration vs. percent residual target enzyme activity.
T4 sequence (P00742 41-179 limits assumed, form in doubt, chain 1 of 2): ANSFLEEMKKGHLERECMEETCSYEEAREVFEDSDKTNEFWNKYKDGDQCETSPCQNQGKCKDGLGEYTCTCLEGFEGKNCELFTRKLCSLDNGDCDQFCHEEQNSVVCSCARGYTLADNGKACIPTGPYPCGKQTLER
T4 sequence (P00742 235-488 limits assumed, form in doubt, chain 2 of 2): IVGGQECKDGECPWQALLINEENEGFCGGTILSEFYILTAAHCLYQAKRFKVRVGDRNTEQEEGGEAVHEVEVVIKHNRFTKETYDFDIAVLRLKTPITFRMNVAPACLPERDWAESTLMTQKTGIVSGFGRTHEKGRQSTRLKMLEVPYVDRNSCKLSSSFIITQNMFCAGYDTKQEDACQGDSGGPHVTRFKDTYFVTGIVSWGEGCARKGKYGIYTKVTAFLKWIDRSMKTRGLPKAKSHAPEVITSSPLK

[8] = target: T5, thrombin (human, UniProt P00734 328-622); experiment: cell-based or functional assay
[9] = target: T4, factor Xa; experiment: cell-based or functional assay
[10] = target: T5, thrombin; experiment: heparin cofactor assay, HCA expt #2; ATIII titrated on 10 nM thrombin + 50 ug/ml UFH, chromogenic readout
Experimental: as §1

[11] = target: T5, thrombin; experiment: heparin cofactor assay, HCA expt #4; ATIII titrated on 10 nM thrombin + 50 ug/ml UFH, chromogenic readout
Experimental: as §1

[12] = target: T4, factor Xa; experiment: heparin cofactor assay, HCA expt #4; ATIII titrated on 10 nM fXa + 50 ug/ml UFH, chromogenic readout
Experimental: as §1

[13] = target: T6, thrombin (human, UniProt P00734 328-622); experiment: Kapp IIa/hep relative to plasma.at3
[14] = target: T7, factor Xa (human, UniProt P00742 41-179; P00742 235-488, limits assumed); experiment: Kapp fXa/prog relative to plasma.at3
T7 construct: also called fXa; human factor Xa
T7 sequence (P00742 41-179 limits assumed, chain 1 of 2): as the sequence (P00742 41-179 limits assumed, form in doubt, chain 1 of 2) above
T7 sequence (P00742 235-488 limits assumed, chain 2 of 2): as the sequence (P00742 235-488 limits assumed, form in doubt, chain 2 of 2) above

[15] = target: T6, thrombin; experiment: thrombin prog: pseudo-first-order loss of chromogenic activity, no heparin, 25 C
Experimental: (§2) Polybrene was added with the chromogenic substrate to quench the heparin dependent reaction. […] This was plotted against the heparin concentration to calculate the second-order rate constant for the inhibition by the heparin-ATIII complex, (Kₕₑₚ) from the equation Kobs=Kₕₑₚ[H]ₒ([AT]ₒ/[AT]ₒ+Kd)+Kuncat[AT]ₒ

[16] = target: T7, factor Xa; experiment: factor Xa prog: pseudo-first-order loss of chromogenic activity, no heparin, 25 C
Experimental: as §2

[17] = target: T7, factor Xa; experiment: Kapp fXa/hep relative to plasma.at3
[18] = target: T6, thrombin; experiment: Kapp IIa/prog relative to plasma.at3

Sequence of human factor Xa (P00742 41-179 limits assumed, chain 1 of 2): as the sequence (P00742 41-179 limits assumed, form in doubt, chain 1 of 2) above
Sequence of human factor Xa (P00742 235-488 limits assumed, chain 2 of 2): as the sequence (P00742 235-488 limits assumed, form in doubt, chain 2 of 2) above

Kapp, thrombin progressive [1]: 3000 M⁻¹ s⁻¹
rsd IIa, catG (CA #51, stg 1 conc 200) [2]: 2%
rsd Xa, catG (CA #51, stg 1 conc 200) [2]: -1%
IC50 IIa/UFH (HCA #5) [3]: 16 nM
IC50 IIa/UFH (HCA #6) [3]: 18 nM
rsd IIa, no add (CA #51, stg 1 conc 200) [3]: 1%
IC50 fXa/UFH (HCA #5) [4]: 12 nM
IC50 fXa/UFH (HCA #6) [4]: 19 nM
rsd Xa, no add (CA #51, stg 1 conc 200) [4]: 1%
rsd IIa, HNE (CA #51, stg 1 conc 200) [5]: 1%
rsd Xa, HNE (CA #51, stg 1 conc 200) [5]: 1%
Kapp, thrombin HAH [6]: 1.1e+07 M⁻¹ s⁻¹
B1: LEAQ.502 (other)
chain: SPVDICTAKPRDIPMNPMCIYRSPEKKATEDEGSEQKIPEATNRRVWELSKANSRFATTFYQHLADSKNDNDNIFLSPLSISTAFAMTKLGACNDTLQQLMEVFKFDTISEKTSDQIHFFFAKLNCRLYRKANKASKLVSANRLFGDKSLTFNETYQDISELVYGAKLQPLDFKENAEQSRAAINKWVSNKTEGRITDVIPSEAINELTVLVLVNTIYFKGLWKSKFSPENTRKELFYKADGESCSASMMYQEGKFRYRRVAEGTQVLELPFKGDDITMVLILPKPEKSLAKVEKELTPEVLQEWLDELEEMMLVVHMPRFRIEDGFSLKEQLQDMGLVDLFSPEKSKLPGIVAEGRDDLYVSDAFHKAFLEVNEEGSEAAASTALSAQGRSLNPNRVTFKANRPFLVFIREVPLNTIIFMGRVANPCVK
notes: also called DES.LEAQ.502

Kapp, thrombin progressive [1]: 4100 M⁻¹ s⁻¹
rsd IIa, catG (CA #51, stg 1 conc 200) [2]: 1%
rsd Xa, catG (CA #51, stg 1 conc 200) [2]: -2%
IC50 IIa/UFH (HCA #5) [3]: 18 nM
rsd IIa, no add (CA #51, stg 1 conc 200) [3]: 1%
IC50 fXa/UFH (HCA #5) [4]: 19 nM
rsd Xa, no add (CA #51, stg 1 conc 200) [4]: -1%
rsd IIa, HNE (CA #51, stg 1 conc 200) [5]: 1%
rsd Xa, HNE (CA #51, stg 1 conc 200) [5]: -3%
Kapp, thrombin HAH [6]: 1.1e+07 M⁻¹ s⁻¹
B4: LEAQ.508 (other)
chain: B1 chain with S387K
notes: also called DES.LEAQ.508

Kapp, thrombin progressive [1]: 3700 M⁻¹ s⁻¹
rsd IIa, catG (CA #51, stg 1 conc 200) [2]: 1%
rsd Xa, catG (CA #51, stg 1 conc 200) [2]: -2%
IC50 IIa/UFH (HCA #5) [3]: 13 nM
rsd IIa, no add (CA #51, stg 1 conc 200) [3]: 0%
IC50 fXa/UFH (HCA #5) [4]: 11 nM
rsd Xa, no add (CA #51, stg 1 conc 200) [4]: 1%
rsd IIa, HNE (CA #51, stg 1 conc 200) [5]: 1%
rsd Xa, HNE (CA #51, stg 1 conc 200) [5]: 0%
Kapp, thrombin HAH [6]: 1.6e+07 M⁻¹ s⁻¹
B6: LEAQ.503 (other)
chain: B1 chain with S387T
notes: also called DES.LEAQ.503

IC50 [11]: > 1000 nM
IC50 [12]: 22 nM
B7: 13C.438 (other)
chain: B1 chain with A385E, S387E, A388N, Q389A
modifications: N-linked glycans added by Drosophila S2 cells; not carried by the letters
notes: Made in Drosophila S2 cells (DES) on the S137A background; N-terminus printed as SPVDI---

IC50 [7]: 40 nM
rsd. IIa catG; CA expt #7; stg1 conc 200 [8]: 5 % of activity without ATIII
rsd. IIa hne; CA expt #7; stg1 conc 200 [8]: 14 % of activity without ATIII
rsd. IIa no add; CA expt #7; stg1 conc 200 [8]: 6 % of activity without ATIII
rsd. Xa catG; CA expt #7; stg1 conc 200 [9]: 3 % of activity without ATIII
rsd. Xa hne; CA expt #7; stg1 conc 200 [9]: 3 % of activity without ATIII
rsd. Xa no add; CA expt #7; stg1 conc 200 [9]: 3 % of activity without ATIII
IC50 [10]: > 1000 nM
B8: 13C.444 (other)
chain: B1 chain with A385E, S387E, A388V, Q389A, G390P
modifications: N-linked glycans added by Drosophila S2 cells; not carried by the letters
notes: as for B7

Kapp, thrombin progressive [1]: 3300 M⁻¹ s⁻¹
rsd IIa, catG (CA #51, stg 1 conc 200) [2]: 1%
rsd Xa, catG (CA #51, stg 1 conc 200) [2]: -1%
IC50 IIa/UFH (HCA #5) [3]: 17 nM
rsd IIa, no add (CA #51, stg 1 conc 200) [3]: 1%
IC50 fXa/UFH (HCA #5) [4]: 14 nM
rsd Xa, no add (CA #51, stg 1 conc 200) [4]: 0%
rsd IIa, HNE (CA #51, stg 1 conc 200) [5]: 1%
rsd Xa, HNE (CA #51, stg 1 conc 200) [5]: 1%
Kapp, thrombin HAH [6]: 6.1e+06 M⁻¹ s⁻¹
B9: LEAQ.504 (other)
chain: B1 chain with S387N
notes: also called DES.LEAQ.504

Kapp, thrombin progressive [1]: 4100 M⁻¹ s⁻¹
IC50 IIa/UFH (HCA #5) [3]: 9 nM
IC50 fXa/UFH (HCA #5) [4]: 13 nM
Kapp, thrombin HAH [6]: 1.1e+07 M⁻¹ s⁻¹
B10: LEAQ.506 (other)
chain: B1 chain with S387H
notes: also called DES.LEAQ.506

Kapp as a percentage of the plasma ATIII value [13]: 159%
Kapp as a percentage of the plasma ATIII value [14]: 457%
kapp (apparent second-order inhibition rate constant) [15]: 5280 M⁻¹ s⁻¹
kapp (apparent second-order inhibition rate constant) [16]: 9550 M⁻¹ s⁻¹
Kapp as a percentage of the plasma ATIII value [17]: 192%
Kapp as a percentage of the plasma ATIII value [18]: 75%
B14: leai(bv) (other, human, UniProt P01008 33-464, looked up)
chain: HGSPVDICTAKPRDIPMNPMCIYRSPEKKATEDEGSEQKIPEATNRRVWELSKANSRFATTFYQHLADSKNDNDNIFLSPLSISTAFAMTKLGACNDTLQQLMEVFKFDTISEKTSDQIHFFFAKLNCRLYRKAAKSSKLVSANRLFGDKSLTFNETYQDISELVYGAKLQPLDFKENAEQSRAAINKWVSNKTEGRITDVIPSEAINELTVLVLVNTIYFKGLWKSKFSPENTRKELFYKADGESCSASMMYQEGKFRYRRVAEGTQVLELPFKGDDITMVLILPKPEKSLAKVEKELTPEVLQEWLDELEEMMLVVHMPRFRIEDGFSLKEQLQDMGLVDLFSPEKSKLPGIVAEGRDDLYVSDAFHKAFLEVNEEGSEAAASTALEAIGRSLNPNRVTFKANRPFLVFIREVPLNTIIFMGRVANPCVK
notes: mature; also called LEAI (parent)

Continued, binder first:

B2: 13C.434 (other)
chain: B1 chain with A385E, S387E, A388F, Q389A
notes: as for B7
IC50 [7]: 17 nM
rsd. IIa catG; CA expt #7; stg1 conc 200 [8]: 5 % of activity without ATIII
rsd. IIa catG; CA expt #8; stg1 conc 200 [8]: 30 % of activity without ATIII
rsd. IIa hne; CA expt #7; stg1 conc 200 [8]: 4 % of activity without ATIII
rsd. IIa hne; CA expt #8; stg1 conc 200 [8]: 12 % of activity without ATIII
rsd. IIa no add; CA expt #7; stg1 conc 200 [8]: 5 % of activity without ATIII
rsd. IIa no add; CA expt #8; stg1 conc 200 [8]: 8 % of activity without ATIII
rsd. Xa catG; CA expt #7; stg1 conc 200 [9]: 2 % of activity without ATIII
rsd. Xa catG; CA expt #8; stg1 conc 200 [9]: 1 % of activity without ATIII
rsd. Xa hne; CA expt #7; stg1 conc 200 [9]: 3 % of activity without ATIII
rsd. Xa hne; CA expt #8; stg1 conc 200 [9]: 1 % of activity without ATIII
rsd. Xa no add; CA expt #7; stg1 conc 200 [9]: 4 % of activity without ATIII
rsd. Xa no add; CA expt #8; stg1 conc 200 [9]: 2 % of activity without ATIII
IC50 [10]: 500 nM

B3: 13C.435 (other)
chain: B1 chain with A385E, S387E, A388W, Q389A
notes: as for B7
IC50 [7]: 34 nM
rsd. IIa catG; CA expt #7; stg1 conc 200 [8]: 5 % of activity without ATIII
rsd. IIa hne; CA expt #7; stg1 conc 200 [8]: 4 % of activity without ATIII
rsd. IIa no add; CA expt #7; stg1 conc 200 [8]: 5 % of activity without ATIII
rsd. Xa catG; CA expt #7; stg1 conc 200 [9]: 3 % of activity without ATIII
rsd. Xa hne; CA expt #7; stg1 conc 200 [9]: 3 % of activity without ATIII
rsd. Xa no add; CA expt #7; stg1 conc 200 [9]: 3 % of activity without ATIII
IC50 [10]: 700 nM

B5: 7EVEA.458 (other)
chain: B1 chain with A385E, L386V, S387E, Q389A, G390P
modifications: N-linked glycans added by Drosophila S2 cells; not carried by the letters
notes: as for B7
IC50 [11]: > 1000 nM
IC50 [12]: 250 nM

B11: 13C (other)
chain: B1 chain with A385E, S387E, A388G, Q389A
notes: N-terminus printed as SPVDI---; text (ELEG) and primer codon GAG give E
IC50 [11]: > 1000 nM
IC50 [12]: 33 nM

B12: 7EVEA.459 (other)
chain: B1 chain with A385E, L386V, S387E, A388I, Q389A, G390P
notes: as for B7
IC50 [11]: > 1000 nM
IC50 [12]: 75 nM

B13: 7EVEA.455 (other)
chain: B1 chain with A385E, L386V, S387E, A388V, Q389A
modifications: N-linked glycans added by Drosophila S2 cells; not carried by the letters
notes: as for B7
IC50 [11]: > 1000 nM
IC50 [12]: 110 nM
